{"source": "paper PMC9482650", "about": "“Quantitative fragmentomics allow affinity mapping of interactomes” (Nature Communications, 2022)", "test_in_all_cases": "holdup assay", "parameters_in_all_cases": "key: below the threshold = too weak to quantify, mostly under pKd 3.1 to 4", "details_in_all_cases": "plain residues with an end cap or a label only (N-terminal biotin on a linker: ado-ado)", "key": {"[1]": {"target": "T1, APBA2_1, Q99767", "T1 sequence (Q99767 563-664, limits assumed, looked up)": "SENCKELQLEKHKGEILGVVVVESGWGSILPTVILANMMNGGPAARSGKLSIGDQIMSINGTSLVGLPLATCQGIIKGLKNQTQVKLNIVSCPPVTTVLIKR"}, "[2]": {"target": "DLG4_1, P78352", "sequence (P78352 62-152)": "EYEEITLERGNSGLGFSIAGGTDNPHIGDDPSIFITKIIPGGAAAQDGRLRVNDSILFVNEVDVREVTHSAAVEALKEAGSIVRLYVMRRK"}, "[3]": {"target": "T2, SNTB1, Q13884", "T2 sequence (Q13884 107-205, limits assumed, looked up)": "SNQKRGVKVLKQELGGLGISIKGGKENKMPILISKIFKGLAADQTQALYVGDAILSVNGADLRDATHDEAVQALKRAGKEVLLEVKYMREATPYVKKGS"}, "[4]": {"target": "GRIP2_6, Q9C0E4", "sequence (Q9C0E4 648-740)": "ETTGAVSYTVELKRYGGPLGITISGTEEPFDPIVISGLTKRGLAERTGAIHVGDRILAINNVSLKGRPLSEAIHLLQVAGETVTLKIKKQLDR"}, "[5]": {"target": "T3, RAPGEF6, Q8TEU7", "T3 sequence (Q8TEU7 525-625, limits assumed, looked up)": "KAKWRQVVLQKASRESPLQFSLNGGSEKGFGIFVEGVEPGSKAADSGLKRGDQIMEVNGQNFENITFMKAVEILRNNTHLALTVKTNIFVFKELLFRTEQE"}, "[6]": {"target": "T4, APBA3_1, O96018", "T4 sequence (O96018 389-490, limits assumed, looked up)": "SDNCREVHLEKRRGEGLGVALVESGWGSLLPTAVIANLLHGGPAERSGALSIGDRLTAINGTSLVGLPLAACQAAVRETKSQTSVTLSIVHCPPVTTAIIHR"}, "[7]": {"target": "T5, SNTG1, Q9NSN8", "T5 sequence (Q9NSN8 52-150, limits assumed, looked up)": "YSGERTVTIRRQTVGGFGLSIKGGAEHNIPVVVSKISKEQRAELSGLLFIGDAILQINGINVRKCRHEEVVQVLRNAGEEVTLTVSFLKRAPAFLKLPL"}, "[8]": {"target": "T6, LNX2_3, Q8N448", "T6 sequence (Q8N448 463-564, limits assumed, looked up)": "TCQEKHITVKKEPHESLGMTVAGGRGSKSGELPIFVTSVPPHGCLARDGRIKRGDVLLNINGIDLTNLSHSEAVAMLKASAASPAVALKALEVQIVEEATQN"}, "[9]": {"target": "GRIP2_4, Q9C0E4", "sequence (Q9C0E4 446-548)": "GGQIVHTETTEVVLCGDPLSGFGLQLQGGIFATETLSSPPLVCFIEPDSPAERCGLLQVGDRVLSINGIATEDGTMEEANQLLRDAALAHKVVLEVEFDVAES"}, "[10]": {"target": "T7, RADIL, Q96JH8", "T7 sequence (Q96JH8 971-1071, limits assumed, looked up)": "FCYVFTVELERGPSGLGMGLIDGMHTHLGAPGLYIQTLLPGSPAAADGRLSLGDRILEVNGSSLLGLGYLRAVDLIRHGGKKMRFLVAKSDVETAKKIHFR"}, "[11]": {"target": "LIMK2, P53671", "sequence (P53671 143-248)": "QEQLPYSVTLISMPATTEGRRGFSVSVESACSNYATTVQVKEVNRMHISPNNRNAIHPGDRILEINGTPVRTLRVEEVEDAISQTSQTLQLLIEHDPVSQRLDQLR"}, "[12]": {"target": "TJP1_3, Q07157", "sequence (Q07157 416-512)": "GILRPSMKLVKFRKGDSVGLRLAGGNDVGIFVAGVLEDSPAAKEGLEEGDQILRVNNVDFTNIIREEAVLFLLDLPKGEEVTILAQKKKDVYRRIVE"}, "[13]": {"target": "T8, MPP6, Q9NZW5", "T8 sequence (Q9NZW5 125-219, limits assumed, looked up)": "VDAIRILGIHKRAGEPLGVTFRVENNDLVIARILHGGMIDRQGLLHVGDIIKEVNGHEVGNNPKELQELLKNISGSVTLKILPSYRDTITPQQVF"}, "[14]": {"target": "Inadl_5, Q8NI35", "sequence (Q8NI35 673-780)": "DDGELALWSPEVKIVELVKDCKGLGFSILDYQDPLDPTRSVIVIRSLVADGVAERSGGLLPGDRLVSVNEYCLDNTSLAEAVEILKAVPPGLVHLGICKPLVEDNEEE"}, "[15]": {"target": "T9, HTRA4, P83105", "T9 sequence (P83105 378-476, limits assumed, looked up)": "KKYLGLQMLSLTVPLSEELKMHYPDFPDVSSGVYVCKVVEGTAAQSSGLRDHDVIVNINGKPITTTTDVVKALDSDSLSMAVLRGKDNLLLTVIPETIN"}, "[16]": {"target": "PDLIM1, O00151", "sequence (O00151 1-87)": "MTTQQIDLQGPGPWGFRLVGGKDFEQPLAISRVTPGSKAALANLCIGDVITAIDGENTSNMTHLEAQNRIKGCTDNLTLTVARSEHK"}, "[17]": {"target": "DLG1_1, Q12959"}, "[18]": {"target": "GRIP2_5, Q9C0E4", "sequence (Q9C0E4 544-642)": "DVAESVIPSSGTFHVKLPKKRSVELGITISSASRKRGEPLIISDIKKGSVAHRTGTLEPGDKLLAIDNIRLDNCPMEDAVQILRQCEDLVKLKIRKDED"}, "[19]": {"target": "DLG5_1, Q8TDM6", "sequence (Q8TDM6 617-713)": "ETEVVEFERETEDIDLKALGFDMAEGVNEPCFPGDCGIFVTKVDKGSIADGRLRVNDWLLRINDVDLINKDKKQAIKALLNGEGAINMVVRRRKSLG"}, "[20]": {"target": "FRMPD2_2, Q68DX3", "sequence (Q68DX3 944-1038)": "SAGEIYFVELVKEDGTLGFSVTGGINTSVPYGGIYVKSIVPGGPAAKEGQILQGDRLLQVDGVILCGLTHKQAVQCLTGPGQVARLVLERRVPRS"}, "[21]": {"target": "T10, TIAM2, Q8IVF5", "T10 sequence (Q8IVF5 885-986, limits assumed, looked up)": "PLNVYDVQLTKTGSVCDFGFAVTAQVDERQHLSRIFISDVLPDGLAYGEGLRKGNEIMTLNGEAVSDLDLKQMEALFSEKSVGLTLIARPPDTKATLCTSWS"}, "[22]": {"target": "T11, GRIP1_7, Q9Y3R0", "T11 sequence (Q9Y3R0 999-1096, limits assumed, looked up)": "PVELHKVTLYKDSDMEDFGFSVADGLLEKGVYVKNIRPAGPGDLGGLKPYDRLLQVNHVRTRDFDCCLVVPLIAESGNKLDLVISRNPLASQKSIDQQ"}, "[23]": {"target": "Inadl_3, Q8NI35", "sequence (Q8NI35 359-469)": "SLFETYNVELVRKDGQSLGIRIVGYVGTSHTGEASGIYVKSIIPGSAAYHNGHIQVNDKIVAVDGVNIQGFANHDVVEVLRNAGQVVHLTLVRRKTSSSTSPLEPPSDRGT"}, "[24]": {"target": "T12, PDZD2_2, O15018", "T12 sequence (O15018 329-429, limits assumed, looked up)": "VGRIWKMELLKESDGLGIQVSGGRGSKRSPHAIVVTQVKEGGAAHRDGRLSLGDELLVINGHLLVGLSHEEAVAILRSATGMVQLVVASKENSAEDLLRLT"}, "[25]": {"target": "Inadl_2, Q8NI35", "sequence (Q8NI35 238-335)": "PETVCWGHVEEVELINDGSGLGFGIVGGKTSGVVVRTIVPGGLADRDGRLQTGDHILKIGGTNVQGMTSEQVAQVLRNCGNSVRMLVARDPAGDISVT"}}}
{"binder": "SKSNFGSEPL", "note": "[KIF17, Q9P2E2]", "values": [{"measurement": "pKd", "setting": "[1]", "value": "below the threshold"}, {"measurement": "pKd", "setting": "[2]", "value": "below the threshold"}, {"measurement": "pKd", "setting": "[3]", "value": "below the threshold"}, {"measurement": "pKd", "setting": "[4]", "value": "below the threshold"}, {"measurement": "pKd", "setting": "[5]", "value": "below the threshold"}, {"measurement": "pKd", "setting": "[6]", "value": "below the threshold"}, {"measurement": "pKd", "setting": "[7]", "value": "below the threshold"}, {"measurement": "pKd", "setting": "[8]", "value": "below the threshold"}, {"measurement": "pKd", "setting": "[9]", "value": "below the threshold"}, {"measurement": "pKd", "setting": "[10]", "value": "below the threshold"}, {"measurement": "pKd", "setting": "[11]", "value": "below the threshold"}, {"measurement": "pKd", "setting": "[12]", "value": "below the threshold"}, {"measurement": "pKd", "setting": "[13]", "value": 3.66}, {"measurement": "pKd", "setting": "[14]", "value": "below the threshold"}, {"measurement": "pKd", "setting": "[15]", "value": "below the threshold"}, {"measurement": "pKd", "setting": "[16]", "value": "below the threshold"}, {"measurement": "pKd", "setting": "[17]", "value": "below the threshold"}, {"measurement": "pKd", "setting": "[18]", "value": "below the threshold"}, {"measurement": "pKd", "setting": "[19]", "value": "below the threshold"}, {"measurement": "pKd", "setting": "[20]", "value": "below the threshold"}, {"measurement": "pKd", "setting": "[21]", "value": "below the threshold"}, {"measurement": "pKd", "setting": "[22]", "value": "below the threshold"}, {"measurement": "pKd", "setting": "[23]", "value": "below the threshold"}, {"measurement": "pKd", "setting": "[24]", "value": "below the threshold"}, {"measurement": "pKd", "setting": "[25]", "value": "below the threshold"}]}
{"binder": "SAKVRTVTSV", "note": "[RASL11B, Q9BPW5]", "values": [{"measurement": "pKd", "setting": "[1]", "value": "below the threshold"}, {"measurement": "pKd", "setting": "[2]", "value": 4.65}, {"measurement": "pKd", "setting": "[3]", "value": 3.64}, {"measurement": "pKd", "setting": "[4]", "value": 3.63}, {"measurement": "pKd", "setting": "[5]", "value": "below the threshold"}, {"measurement": "pKd", "setting": "[6]", "value": "below the threshold"}, {"measurement": "pKd", "setting": "[7]", "value": 3.62}, {"measurement": "pKd", "setting": "[8]", "value": "below the threshold"}, {"measurement": "pKd", "setting": "[9]", "value": "below the threshold"}, {"measurement": "pKd", "setting": "[10]", "value": 3.94}, {"measurement": "pKd", "setting": "[11]", "value": "below the threshold"}, {"measurement": "pKd", "setting": "[12]", "value": "below the threshold"}, {"measurement": "pKd", "setting": "[13]", "value": "below the threshold"}, {"measurement": "pKd", "setting": "[14]", "value": "below the threshold"}, {"measurement": "pKd", "setting": "[15]", "value": 4.06}, {"measurement": "pKd", "setting": "[16]", "value": "below the threshold"}, {"measurement": "pKd", "setting": "[17]", "value": 4.42}, {"measurement": "pKd", "setting": "[18]", "value": "below the threshold"}, {"measurement": "pKd", "setting": "[19]", "value": "below the threshold"}, {"measurement": "pKd", "setting": "[20]", "value": 3.97}, {"measurement": "pKd", "setting": "[21]", "value": "below the threshold"}, {"measurement": "pKd", "setting": "[22]", "value": "below the threshold"}, {"measurement": "pKd", "setting": "[23]", "value": "below the threshold"}, {"measurement": "pKd", "setting": "[24]", "value": 4.25}, {"measurement": "pKd", "setting": "[25]", "value": "below the threshold"}]}
{"binder": "DTTVPESEDL", "note": "[MYOZ2, Q9NPC6]", "values": [{"measurement": "pKd", "setting": "[1]", "value": "below the threshold"}, {"measurement": "pKd", "setting": "[2]", "value": "below the threshold"}, {"measurement": "pKd", "setting": "[3]", "value": "below the threshold"}, {"measurement": "pKd", "setting": "[4]", "value": "below the threshold"}, {"measurement": "pKd", "setting": "[5]", "value": "below the threshold"}, {"measurement": "pKd", "setting": "[6]", "value": "below the threshold"}, {"measurement": "pKd", "setting": "[7]", "value": "below the threshold"}, {"measurement": "pKd", "setting": "[8]", "value": "below the threshold"}, {"measurement": "pKd", "setting": "[9]", "value": "below the threshold"}, {"measurement": "pKd", "setting": "[10]", "value": "below the threshold"}, {"measurement": "pKd", "setting": "[11]", "value": "below the threshold"}, {"measurement": "pKd", "setting": "[12]", "value": "below the threshold"}, {"measurement": "pKd", "setting": "[13]", "value": "below the threshold"}, {"measurement": "pKd", "setting": "[14]", "value": "below the threshold"}, {"measurement": "pKd", "setting": "[15]", "value": 3.8}, {"measurement": "pKd", "setting": "[16]", "value": 5.1}, {"measurement": "pKd", "setting": "[17]", "value": "below the threshold"}, {"measurement": "pKd", "setting": "[18]", "value": "below the threshold"}, {"measurement": "pKd", "setting": "[19]", "value": "below the threshold"}, {"measurement": "pKd", "setting": "[20]", "value": "below the threshold"}, {"measurement": "pKd", "setting": "[21]", "value": "below the threshold"}, {"measurement": "pKd", "setting": "[22]", "value": "below the threshold"}, {"measurement": "pKd", "setting": "[23]", "value": "below the threshold"}, {"measurement": "pKd", "setting": "[24]", "value": "below the threshold"}, {"measurement": "pKd", "setting": "[25]", "value": "below the threshold"}]}
{"binder": "PDGQCTVTEV", "note": "[RNF146, Q9NTX7]", "values": [{"measurement": "pKd", "setting": "[1]", "value": "below the threshold"}, {"measurement": "pKd", "setting": "[2]", "value": 4.6}, {"measurement": "pKd", "setting": "[3]", "value": 4.37}, {"measurement": "pKd", "setting": "[4]", "value": "below the threshold"}, {"measurement": "pKd", "setting": "[5]", "value": "below the threshold"}, {"measurement": "pKd", "setting": "[6]", "value": "below the threshold"}, {"measurement": "pKd", "setting": "[7]", "value": 4.68}, {"measurement": "pKd", "setting": "[8]", "value": "below the threshold"}, {"measurement": "pKd", "setting": "[9]", "value": "below the threshold"}, {"measurement": "pKd", "setting": "[10]", "value": 4.62}, {"measurement": "pKd", "setting": "[11]", "value": "below the threshold"}, {"measurement": "pKd", "setting": "[12]", "value": "below the threshold"}, {"measurement": "pKd", "setting": "[13]", "value": 3.92}, {"measurement": "pKd", "setting": "[14]", "value": "below the threshold"}, {"measurement": "pKd", "setting": "[15]", "value": 4.36}, {"measurement": "pKd", "setting": "[16]", "value": "below the threshold"}, {"measurement": "pKd", "setting": "[17]", "value": 4.53}, {"measurement": "pKd", "setting": "[18]", "value": "below the threshold"}, {"measurement": "pKd", "setting": "[19]", "value": "below the threshold"}, {"measurement": "pKd", "setting": "[20]", "value": 4.44}, {"measurement": "pKd", "setting": "[21]", "value": "below the threshold"}, {"measurement": "pKd", "setting": "[22]", "value": 3.51}, {"measurement": "pKd", "setting": "[23]", "value": 4.11}, {"measurement": "pKd", "setting": "[24]", "value": 4.79}, {"measurement": "pKd", "setting": "[25]", "value": "below the threshold"}]}
